Laboratory results as given in patent publication US20080138349A1 (MacroGenics, published 2008).
Values belong to the binder of their own block, whether it stands above or below them.

Assays:
[1] = target: T1, FcγRIIIA (UniProt P08637 17-208, limits assumed); experiment: ELISA
T1 construct: also called CD16A

[2] = target: T1, FcγRIIIA; experiment: ELISA; remark: listed apart in the source
[3] = target: T2, FcγRIIB-Fc fusion protein, soluble dimeric: extracellular domain of FcγRIIB fused to the hinge-CH2-CH3 domain … (human, UniProt P31994 43-217, limits assumed); experiment: BIAcore, ch4-4-20
T2 construct: extracellular domain; also called FcRIIB-Fc; FcR2B; not shown: human IgG2 hinge-CH2-CH3
T2 sequence (looked up): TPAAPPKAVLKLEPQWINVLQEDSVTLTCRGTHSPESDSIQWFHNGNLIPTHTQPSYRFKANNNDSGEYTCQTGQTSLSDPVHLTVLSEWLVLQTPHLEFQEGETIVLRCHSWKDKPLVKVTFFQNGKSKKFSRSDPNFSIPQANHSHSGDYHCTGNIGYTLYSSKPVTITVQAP

[4] = target: T1, FcγRIIIA; experiment: ELISA; remark: listed apart in the source
[5] = target: T3, FcγRIIB (UniProt P31994 43-217, limits assumed); experiment: ELISA
T3 construct: also called CD32B
T3 sequence (looked up): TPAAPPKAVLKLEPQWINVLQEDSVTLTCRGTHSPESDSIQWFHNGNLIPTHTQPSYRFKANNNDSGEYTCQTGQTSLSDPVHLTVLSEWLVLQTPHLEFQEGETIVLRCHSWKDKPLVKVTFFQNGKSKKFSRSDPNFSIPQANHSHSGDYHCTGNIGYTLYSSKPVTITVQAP

[6] = target: T4, FcγRIIIA 158V, soluble (UniProt P08637 17-208, limits assumed); experiment: BIAcore, 2B6 captured by soluble CD32B
T4 construct: also called 3aV158

[7] = target: T5, FcγRIIIA 158F, soluble (UniProt P08637 17-208, limits assumed); experiment: BIAcore, 2B6 captured by soluble CD32B
T5 construct: also called 3aF158

[8] = target: T6, 2bfcagl (FcγRIIB-Fc) (UniProt P31994 43-217, limits assumed); experiment: BIAcore, 2B6 captured by soluble CD32B
T6 construct: label not explained; may be m4 or an aglycosylated form of it; not shown: Fc part; label fcagl is not explained
T6 sequence (looked up): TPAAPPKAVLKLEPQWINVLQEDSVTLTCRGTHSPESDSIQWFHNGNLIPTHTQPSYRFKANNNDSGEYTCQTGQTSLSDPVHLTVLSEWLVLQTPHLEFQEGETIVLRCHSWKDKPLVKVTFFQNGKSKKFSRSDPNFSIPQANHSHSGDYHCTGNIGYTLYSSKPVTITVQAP

[9] = target: T7, 2aR131Fcagl (FcγRIIA 131R-Fc) (UniProt P12318 34-217, limits assumed); experiment: BIAcore, 2B6 captured by soluble CD32B
T7 construct: not shown: Fc part; label Fcagl is not explained
T7 sequence (looked up): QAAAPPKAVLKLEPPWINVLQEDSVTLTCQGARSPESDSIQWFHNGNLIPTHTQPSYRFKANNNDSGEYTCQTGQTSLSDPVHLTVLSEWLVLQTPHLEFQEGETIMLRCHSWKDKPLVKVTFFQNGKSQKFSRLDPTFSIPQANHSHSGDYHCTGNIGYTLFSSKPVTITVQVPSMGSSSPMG

[10] = target: T8, 2aH131Fcagl (FcγRIIA 131H-Fc) (UniProt P12318 34-217, limits assumed); experiment: BIAcore, 2B6 captured by soluble CD32B
T8 construct: also called FcγRIIA H131; not shown: Fc part; label Fcagl is not explained
T8 sequence (looked up): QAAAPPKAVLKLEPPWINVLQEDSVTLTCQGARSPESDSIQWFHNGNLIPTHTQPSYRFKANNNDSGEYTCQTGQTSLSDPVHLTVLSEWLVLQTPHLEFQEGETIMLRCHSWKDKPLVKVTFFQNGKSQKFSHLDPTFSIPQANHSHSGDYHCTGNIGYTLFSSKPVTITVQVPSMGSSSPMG

[11] = target: T9, C1q; experiment: BIAcore, 2B6 captured by soluble CD32B
T9 construct: also called first component of the complement cascade

[12] = target: T10, soluble monomeric FcγRIIIA, the extracellular region of FcγRIIIA joined to the linker-AVITAG sequence (UniProt P08637 17-208, limits assumed); experiment: BIAcore
T10 construct: extracellular domain; also called FcRIIIA; FcR3A

[13] = target: T2, FcγRIIB-Fc fusion protein, soluble …; experiment: BIAcore
[14] = target: T10, soluble monomeric FcγRIIIA, the …; experiment: BIAcore, antibody captured on BSA-FITC
[15] = target: T2, FcγRIIB-Fc fusion protein, soluble …; experiment: ELISA of the ch4-4-20 Fc variant for FcγRIIB-Fc fusion protein, value listed beside the sensorgram

T4 sequence (P08637 17-208 F176V limits assumed): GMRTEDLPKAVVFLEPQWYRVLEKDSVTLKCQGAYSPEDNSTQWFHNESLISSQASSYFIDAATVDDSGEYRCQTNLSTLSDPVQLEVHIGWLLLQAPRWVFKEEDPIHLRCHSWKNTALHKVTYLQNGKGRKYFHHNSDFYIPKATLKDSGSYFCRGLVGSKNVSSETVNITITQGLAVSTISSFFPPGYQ
T10 sequence (P08637 17-208 limits assumed): as the sequence (P08637 17-208 F176V limits assumed) above, with V160F counted along it
T5 sequence (P08637 17-208 limits assumed): as the sequence (P08637 17-208 F176V limits assumed) above, with V160F counted along it
T1 sequence (P08637 17-208 limits assumed): as the sequence (P08637 17-208 F176V limits assumed) above, with V160F counted along it
T9 sequence (P02745 23-245, chain 1 of 3): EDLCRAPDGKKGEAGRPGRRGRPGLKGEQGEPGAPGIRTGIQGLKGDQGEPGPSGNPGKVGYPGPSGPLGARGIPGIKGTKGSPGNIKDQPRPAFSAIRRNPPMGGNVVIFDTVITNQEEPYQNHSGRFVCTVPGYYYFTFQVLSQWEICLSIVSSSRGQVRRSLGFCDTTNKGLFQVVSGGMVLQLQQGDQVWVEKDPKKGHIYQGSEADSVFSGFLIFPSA
T9 sequence (P02746 28-253, chain 2 of 3, further chain): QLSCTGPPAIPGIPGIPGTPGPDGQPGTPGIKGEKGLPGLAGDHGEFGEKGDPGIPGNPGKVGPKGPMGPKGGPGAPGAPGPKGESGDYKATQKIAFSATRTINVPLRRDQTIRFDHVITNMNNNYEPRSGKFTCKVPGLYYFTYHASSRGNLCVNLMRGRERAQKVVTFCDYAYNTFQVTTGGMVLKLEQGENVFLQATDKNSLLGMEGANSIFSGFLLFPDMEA
T9 sequence (P02747 29-245, chain 3 of 3, further chain): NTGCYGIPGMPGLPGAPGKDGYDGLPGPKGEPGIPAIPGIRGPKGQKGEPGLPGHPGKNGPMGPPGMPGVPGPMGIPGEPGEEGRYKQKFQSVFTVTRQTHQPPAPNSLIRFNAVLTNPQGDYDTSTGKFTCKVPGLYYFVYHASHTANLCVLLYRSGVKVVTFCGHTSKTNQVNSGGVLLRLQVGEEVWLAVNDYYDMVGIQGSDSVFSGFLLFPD

ELISA binding increase vs wt [4]: 3.6 x
ELISA binding increase vs wt [5]: 0.1 x
B3: ch4-4-20 D221E, D270E, V308A, Q311H, P396L, G402D (antibody)
chain: EPKSCEKTHTCPPCPAPELLGGPSVFLFPPKPKDTLMISRTPEVTCVVVDVSHEEPEVKFNWYVDGVEVHNAKTKPREEQYNSTYRVVSVLTALHHDWLNGKEYKCKVSNKALPAPIEKTISKAKGQPREPQVYTLPPSREEMTKNQVSLTCLVKGFYPSDIAVEWESNGQPENNYKTTPLVLDSDDSFFLYSKLTVDKSRWQQGNVFSCSVMHEALHNHYTQKSLSLSPGK

koff [6]: 0.084 s⁻¹
koff [7]: 0.238 s⁻¹
koff [8]: 0.094 s⁻¹
koff [9]: 0.127 s⁻¹
koff [10]: 0.034 s⁻¹
B4: ch-mAb 2B6 MgFc31/60 (P247L, D270E, N421K) (antibody)
chain: ASTKGPSVFPLAPSSKSTSGGTAALGCLVKDYFPEPVTVSWNSGALTSGVHTFPAVLQSSGLYSLSSVVTVPSSSLGTQTYICNVNHKPSNTKVDKKVEPKSCDKTHTCPPCPAPELLGGPSVFLFPPKLKDTLMISRTPEVTCVVVDVSHEEPEVKFNWYVDGVEVHNAKTKPREEQYNSTYRVVSVLTVLHQDWLNGKEYKCKVSNKALPAPIEKTISKAKGQPREPQVYTLPPSRDELTKNQVSLTCLVKGFYPSDIAVEWESNGQPENNYKTTPPVLDSDGSFFLYSKLTVDKSRWQQGKVFSCSVMHEALHNHYTQKSLSLSPGK

koff [11]: 0.107 s⁻¹
koff [6]: 0.105 s⁻¹
koff [7]: 0.296 s⁻¹
koff [8]: 0.078 s⁻¹
koff [9]: 0.095 s⁻¹
koff [10]: 0.024 s⁻¹
B6: ch-mAb 2B6 MgFc59/60 (K370E, P396L with D270E) (antibody)
chain: ASTKGPSVFPLAPSSKSTSGGTAALGCLVKDYFPEPVTVSWNSGALTSGVHTFPAVLQSSGLYSLSSVVTVPSSSLGTQTYICNVNHKPSNTKVDKKVEPKSCDKTHTCPPCPAPELLGGPSVFLFPPKPKDTLMISRTPEVTCVVVDVSHEEPEVKFNWYVDGVEVHNAKTKPREEQYNSTYRVVSVLTVLHQDWLNGKEYKCKVSNKALPAPIEKTISKAKGQPREPQVYTLPPSRDELTKNQVSLTCLVEGFYPSDIAVEWESNGQPENNYKTTPLVLDSDGSFFLYSKLTVDKSRWQQGNVFSCSVMHEALHNHYTQKSLSLSPGK

ELISA IIIA binding vs wt [1]: 1.5 X
ELISA binding increase vs wt [4]: 1.5 x
ELISA binding increase vs wt [5]: 14 x
Kd [12]: 72 nM
koff [12]: 0.117 s⁻¹
Kd [13]: 46 nM
koff [13]: 0.06 s⁻¹
B9: ch4-4-20 G316D, A378V, D399E (antibody)
chain 1: EVKLDETGGGLVQPGRPMKLSCVASGFTFSDYWMNWVRQSPEKGLEWVAQIRNKPYNYETYYSDSVKGRFTISRDDSKSSVYLQMNNLRVEDMGIYYCTGSYYGMDYWGQGTSVTVSSASTKGPSVFPLAPSSKSTSGGTAALGCLVKDYFPEPVTVSWNSGALTSGVHTFPAVLQSSGLYSLSSVVTVPSSSLGTQTYICNVNHKPSNTKVDKKVEPKSCDKTHTCPPCPAPELLGGPSVFLFPPKPKDTLMISRTPEVTCVVVDVSHEDPEVKFNWYVDGVEVHNAKTKPREEQYNSTYRVVSVLTVLHQDWLNDKEYKCKVSNKALPAPIEKTISKAKGQPREPQVYTLPPSRDELTKNQVSLTCLVKGFYPSDIVVEWESNGQPENNYKTTPPVLESDGSFFLYSKLTVDKSRWQQGNVFSCSVMHEALHNHYTQKSLSLSPGK
chain 2: DVVMTQTPLSLPVSLGDQASISCRSSQSLVHSNGNTYLRWYLQKPGQSPKVLIYKVSNRFSGVPDRFSGSGSGTDFTLKISRVEAEDLGVYFCSQSTHVPWTFGGGTKLEIKRTVAAPSVFIFPPSDEQLKSGTASVVCLLNNFYPREAKVQWKVDNALQSGNSQESVTEQDSKDSTYSLSSTLTLSKADYEKHKVYACEVTHQGLSSPVTKSFNRGEC

Second part, the binder before the results:

B1: ch4-4-20 K288N, A330S, P396L (antibody)
chain: EPKSCDKTHTCPPCPAPELLGGPSVFLFPPKPKDTLMISRTPEVTCVVVDVSHEDPEVKFNWYVDGVEVHNANTKPREEQYNSTYRVVSVLTVLHQDWLNGKEYKCKVSNKALPSPIEKTISKAKGQPREPQVYTLPPSREEMTKNQVSLTCLVKGFYPSDIAVEWESNGQPENNYKTTPLVLDSDGSFFLYSKLTVDKSRWQQGNVFSCSVMHEALHNHYTQKSLSLSPGK
ELISA IIIA binding vs wt [1]: 5 X
ELISA, OD [2]: 1 OD

B2: ch4-4-20 S298N, K360R, N361D (antibody)
chain: EPKSCDKTHTCPPCPAPELLGGPSVFLFPPKPKDTLMISRTPEVTCVVVDVSHEDPEVKFNWYVDGVEVHNAKTKPREEQYNNTYRVVSVLTVLHQDWLNGKEYKCKVSNKALPAPIEKTISKAKGQPREPQVYTLPPSREEMTRDQVSLTCLVKGFYPSDIAVEWESNGQPENNYKTTPPVLDSDGSFFLYSKLTVDKSRWQQGNVFSCSVMHEALHNHYTQKSLSLSPGK
Koff WT/Mut [3]: 0.67

B5: ch-mAb 2B6 MgFc51/60 (Q419H, P396L with D270E) (antibody)
chain: ASTKGPSVFPLAPSSKSTSGGTAALGCLVKDYFPEPVTVSWNSGALTSGVHTFPAVLQSSGLYSLSSVVTVPSSSLGTQTYICNVNHKPSNTKVDKKVEPKSCDKTHTCPPCPAPELLGGPSVFLFPPKPKDTLMISRTPEVTCVVVDVSHEEPEVKFNWYVDGVEVHNAKTKPREEQYNSTYRVVSVLTVLHQDWLNGKEYKCKVSNKALPAPIEKTISKAKGQPREPQVYTLPPSRDELTKNQVSLTCLVKGFYPSDIAVEWESNGQPENNYKTTPLVLDSDGSFFLYSKLTVDKSRWQHGNVFSCSVMHEALHNHYTQKSLSLSPGK
koff [11]: 0.079 s⁻¹
koff [6]: 0.112 s⁻¹
koff [7]: 0.293 s⁻¹
koff [8]: 0.077 s⁻¹
koff [9]: 0.089 s⁻¹
koff [10]: 0.028 s⁻¹

B7: ch4-4-20 K288M, K334E (antibody)
chain 1: not shown
chain 2: DVVMTQTPLSLPVSLGDQASISCRSSQSLVHSNGNTYLRWYLQKPGQSPKVLIYKVSNRFSGVPDRFSGSGSGTDFTLKISRVEAEDLGVYFCSQSTHVPWTFGGGTKLEIKRTVAAPSVFIFPPSDEQLKSGTASVVCLLNNFYPREAKVQWKVDNALQSGNSQESVTEQDSKDSTYSLSSTLTLSKADYEKHKVYACEVTHQGLSSPVTKSFNRGEC
ELISA IIIA binding vs wt [1]: 3 X
ELISA binding increase vs wt [4]: 3 x
ELISA, OD [2]: 1.1 OD
Kd [12]: 75.4 nM
koff [12]: 0.1 s⁻¹
Kd [13]: 95.6 nM
koff [13]: 0.089 s⁻¹
Kd [14]: 75.4 nM
koff [14]: 0.1 s⁻¹
kon [14]: 1.37e+06 M⁻¹ s⁻¹
ELISA, OD [15]: 0.13 OD

B8: ch4-4-20 Mut23 (antibody)
chain 1: not shown
chain 2: DVVMTQTPLSLPVSLGDQASISCRSSQSLVHSNGNTYLRWYLQKPGQSPKVLIYKVSNRFSGVPDRFSGSGSGTDFTLKISRVEAEDLGVYFCSQSTHVPWTFGGGTKLEIKRTVAAPSVFIFPPSDEQLKSGTASVVCLLNNFYPREAKVQWKVDNALQSGNSQESVTEQDSKDSTYSLSSTLTLSKADYEKHKVYACEVTHQGLSSPVTKSFNRGEC
ELISA, OD [2]: 1.25 OD
Kd [14]: 70.2 nM
koff [14]: 0.105 s⁻¹
kon [14]: 1.43e+06 M⁻¹ s⁻¹
ELISA, OD [15]: 0.1 OD
